Literature values in US20110020368A1, “TREATING CANCER BY DOWN-REGULATING FRIZZLED-4 AND/OR FRIZZLED-1” (priority 2008, published 2011).

System: breast tumor cell lines
Details: interference with autocrine WNT pathway activation

B1: sFRP1: extracellular inhibitor of WNT signaling, which competes with FZD receptors for ligand binding (protein, UniProt Q8N474 32-314, looked up)
Secreted frizzled-related …: SEYDYVSFQSDIGPYQSGRFYTKPPQCVDIPADLRLCHNVGYKKMVLPNLLEHETMAEVKQQASSWVPLLNKNCHAGTQVFLCSLFAPVCLDRPIYPCRWLCEAVRDSCEPVMQFFGFYWPEMLKCDKFPEGDVCIAMTPPNATEASKPQGTTVCPPCDNELKSEAIIEHLCASEFALRMKIKEVKKENGDKKIVPKKKKPLKLGPIKKKDLKKLVLYLKNGADCPCHQLDNLSHHFLIMGRKVKSQYLLTAIHKWDKKNKEFKNFMKKMKNHECPTFQSVFK
Effect on proliferation of breast tumor cell lines: blocks proliferation
